From PMC7440919, “Cryo-EM structure of the lysosomal chloride-proton exchanger CLC-7 in complex with OSTM1” (eLife, 2020)

B1: human osteopetrosis-associated transmembrane protein 1 (OSTM1) (natural protein)
chain: ALPFGSSPHRVFHDLLSEQQLLEVEDLSLSLLQGGGLGPLSLPPDLPDLDPECRELLLDFANSSAELTGCLVRSARPVRLCQTCYPLFQQVVSKMDNISRAAGNTSESQSCARSLLMADRMQIVVILSEFFNTTWQEANCANCLTNNSEELSNSTVYFLNLFNHTLTCFEHNLQGNAHSLLQTKNYSEVCKNCREAYKTLSSLYSEMQKMNELENKAEPGTHLCIDVEDAMNITRKLWSRTFNCSVPCSDTVPVIAVSVFILFLPVVFYLSSFLHSEQKKRKLILPKRLKSSTSFANIQENSN
modifications: N-linked carbohydrate at asparagines 93, 128, 163, 184, 194, 263 and 274; five disulfide bonds in the luminal domain
notes: OSTM1, human, single-pass transmembrane protein; synthesized gene (SynBio); C-terminal cytoplasmic domain disordered in the structure; Printed residue numbers appear to count on the precursor; also called hsOSTM1; beta-subunit of CLC-7; not shown: mVenus, C-terminal, cleaved
B2: human CLC-7 (natural protein, UniProt P51798 1-805, looked up)
chain: MANVSKKVSWSGRDRDDEEAAPLLRRTARPGGGTPLLNGAGPGAARQSPRSALFRVGHMSSVELDDELLDPDMDPPHPFPKEIPHNEKLLSLKYESLDYDNSENQLFLEEERRINHTAFRTVEIKRWVICALIGILTGLVACFIDIVVENLAGLKYRVIKGNIDKFTEKGGLSFSLLLWATLNAAFVLVGSVIVAFIEPVAAGSGIPQIKCFLNGVKIPHVVRLKTLVIKVSGVILSVVGGLAVGKEGPMIHSGSVIAAGISQGRSTSLKRDFKIFEYFRRDTEKRDFVSAGAAAGVSAAFGAPVGGVLFSLEEGASFWNQFLTWRIFFASMISTFTLNFVLSIYHGNMWDLSSPGLINFGRFDSEKMAYTIHEIPVFIAMGVVGGVLGAVFNALNYWLTMFRIRYIHRPCLQVIEAVLVAAVTATVAFVLIYSSRDCQPLQGGSMSYPLQLFCADGEYNSMAAAFFNTPEKSVVSLFHDPPGSYNPLTLGLFTLVYFFLACWTYGLTVSAGVFIPSLLIGAAWGRLFGISLSYLTGAAIWADPGKYALMGAAAQLGGIVRMTLSLTVIMMEATSNVTYGFPIMLVLMTAKIVGDVFIEGLYDMHIQLQSVPFLHWEAPVTSHSLTAREVMSTPVTCLRRREKVGVIVDVLSDTASNHNGFPVVEHADDTQPARLQGLILRSQLIVLLKHKVFVERSNLGLVQRRLRLKDFRDAYPRFPPIQSIHVSQDERECTMDLSEFMNPSPYTVPQEASLPRVFKLFRALGLRHLVVVDNRNQVVGLVTRKDLARYRLGKRGLEELSLAQT
notes: CLC-7 (CLCN7) chloride-proton exchanger, human; synthesized gene (SynBio); called full-length in the results for the human CLC-7 expressed alone; the methods describe only the mCerulean construct used for the complex with OSTM1; also called hsCLC-7; hsCLCN7; not shown: mCerulean, C-terminal, cleaved

Key:
[1] = molecular target: chicken CLC-7 (Gallus gallus (chicken)); assay: cryo-EM structure; purified ggCLC-7 at 2 mg/ml in LMNG, 50 mM Tris-HCl pH 8, 150 mM KCl, 2 mM DTT; C2 symmetry imposed
[2] = molecular target: B2; assay: cryo-EM structure; purified co-expressed hsCLC-7/OSTM1 complex at 2 mg/ml, supplemented with 1 mM ATP and 0.1% LMNG; 50 mM Tris-HCl pH 8, 150 mM KCl, 2 mM DTT; C2 symmetry imposed, local refinements; details: both partners purified
[3] = molecular target: the molecule itself; assay: as above

| Molecule | stoichiometry N [1] | binding result [2] | stoichiometry N [3] |
| --- | --- | --- | --- |
| chicken CLC-7 (natural protein) | 2 |  |  |
| B1 |  | binds | 2 |
| B2 |  |  | 2 |
